Measured values taken from publication PMC11302665.

Assays:
[1] = target: IscS (Escherichia coli) (UniProt P0A6B7); assay: native mass spectrometry; details: cited from earlier work
[2] = target: R220/223/225E triple variant of IscS (E. coli) (UniProt P0A6B7); assay: native MS; ESI-MS under non-denaturing conditions of IscS alone, 250 mM ammonium acetate, pH 8.0
[3] = target: L-cysteine desulfurase IscS (E. coli) (UniProt P0A6B7); assay: native MS; ~8 µM IscS (~4 µM dimeric IscS) titrated with increasing TusA in 250 mM ammonium acetate, pH 8.0; fractional intensities fitted to a sequential binding model (Dynafit)
[4] = target: L-cysteine desulfurase IscS (E. coli) (UniProt P0A6B7)

Row | Substance | Kd [3] [µM] | further results
1 | IscU (from UniProt P0ACD4) | – | Kd [1]: 3 µM
2 | R220/223/225E triple variant of IscS (from UniProt P0A6B7 1-404) (enzyme) | – | stoichiometry N [2]: 2
3 | TusA (from UniProt P0A890 1-81) (natural protein) | 8 | L-cysteine desulfurase activity of IscS (methylene blue assay) after addition of TusA [4]: 3 fold
4 | TusA C19S variant (from UniProt P0A890 1-81) (natural protein) | 8 | –
5 | TusA C56A variant (from UniProt P0A890 1-81) (natural protein) | 8 | –
